Laboratory results: the nanobody polyreactivity screen of Harvey et al. (2022)

Experiment: yeast display, Sf9 membrane polyspecificity reagent, FACS + sequencing; frameworks hold sequencing errors
Outline: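 Genes from sorted yeast were amplified by colony PCR, read by MiSeq 2 × 250 sequencing and filtered on CDR length. These cells carried a synthetic nanobody library in Saccharomyces cerevisiae BJ5465 and were sorted by FACS into low and high (top ~1%) gates on anti-HA and streptavidin fluorescence. Polyreactivity is labelled according to the gate of origin.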

Sequence	polyreactivity (PSR sort gate)
QVQLVESGGGLVKAGGSLRLSCAASGFSFFGYAMGWYRQAPGKERELVAAIDNGGSTNYADSVKGRFTISRDNAKNTVYLQMNSLKPEDTAVYYCNTDVDYAILDYWGQGTQVTVSS	low polyreactivity
QVQLVESGGGLVQAGGSLRLSCAASGFTFAYYAMGWYRQAPGKERELVADISSGGSTDYADSVKGRFTISRDNAKNTVYLQMNSLKPEDTAVYYCNAVVVRLWYDYDYWGQGTQVTVSS	low polyreactivity
QVQLVESGGGLVQAGGSLRLICAASGNTFSAYGMGYYRQAAGKERELVAGITNGGSTNYADSVKGRFTISRDNAMNTVYLQMNSLKPEDTAVYYCATVQYVEPPTPVDYWGQGTQVTVSS	low polyreactivity
QFQLVESGGGLVQAGGSLRLSCAASGSTFIYYTMGWYRQAPGKERELVAAIPSSGGSTYYADSVKGRFTISRDNAKNTVYFQMNSLKPEDTAVYYCAADGTYIKFAKLYRRYDYWGQGTQVTVSS	low polyreactivity
QVQLVESGGGLVQAGGSLRLSCAASGHIFTRNAMGWYRQAPGKERELVAAISRTGGSTYYADSVKGRFTISRDNAKNSVYLQMNSLKPEDTAVYYCAKRRQASEDYWGQGTQVTVSS	high polyreactivity
QVQLVESGRGLVQAGGSLRLSCASSGRIFARNAMGWYRKAPGQEREFVAAITFSGGSTYYAESVKGRFTISRDNAKNTVYLQMNSLKPEDTAVYYCAARSFDDWGQGTQVTVSS	high polyreactivity
QVQLEESGGGLVQAGGSLRLICAATGSIFSFYAMGWYRQAPGKEREWVAAIDVSGGSTYYADSVKGRFTISRDNAKNTVYLQMNSLKPEDTAVYYCAKDVRDQYDYWGQGTQVTVSS	low polyreactivity
QVQLVESGGGLVQAGGSLRLSCAASGSIIGDNAMGWSRQAPGKERELVADITNGGSTNYADSVKGRFTISRDNAKNTVYLQMNSLKPEDTAVYYCNKDIVWYGNYGYWGQGTQVTVSS	low polyreactivity
QVLLVESGGGLVQAGGSLSLSCAASGRTFFNNAMGWYRQAPGQEREFVAAISRSGSSTYYAVSVKGRFTISRDNAKNTVYLQMNSLKPEHTAVYYCASYLYYYSAYGYWGQGTQVTVSS	high polyreactivity
QVKLVESRGGLVQAGGSLRLSCAASARIFVHNAKGCYRQAPGKAREFDAAITRRGGSTYADSVKGRFRISRDNAKNTVYLQMTSLKPEDTAVYYCNAESYYGIFRYNYDYWGQGTQVTVSS	high polyreactivity
QDQLVESGGGLVQAGGSLRLSCAASGRTFRSYVMGWYRQAPGKERELVAAITTSGGSTYYADSVKGRFTISRDNAKNTVYLQMNSLKPEDTAVYYCAAEYYTYTGHYDSWYGDDYWGQGTQVTVSS	high polyreactivity
QVQLGESRGGLVQAGGSLRLSCAASGIIFTFNAMVWYSQAPGKERELVAGISQGGSSTNYADSVKGRFTISRDNAKNTVDLQRNSLKREVTAVYYCAAYVDIVGDYWVVGYYYWGQGTQVTVSS	low polyreactivity
QVQLVESGGGLVQAGGSLRLSCAASGYTFKVYAMGWYRQAPGKERELVAAIRSSGGSTYADSVKGRFTISRDNAKNTVYLQMNSLKPEDTAVYYCAKAGYVSGLYSATRYEYWGQGTQVTVSS	low polyreactivity
QVQLVESGGGLVQAGGSLRVSCASSGSTFVSYAMVWYRQAPGKERELVASISGSDGRTYYADSVKGRFTISRDNAKNTVYLQMKSLNPEDTAVYYCAKRYWRHPVFYLYDYWVQGTQVTVSS	high polyreactivity
QVQLVESGGGLVQAGGSLRLSCAASGNTFFTYAMGWYRQAPGQERELVAVITSVGSTNYADSVKGLFTISRDNAKNTVYLQMNSLKPEDTAVYYCAAKGYRVYRYYRGRTYDYWGQGSQVTVSS	high polyreactivity
QVQLVESGGGLVQAGGSLRLSCAASGSIFVANAMGWYRPAPGKERELVAAISSGGSTYYADSVKGRFTISRDNAKNTVYLQMNSLKPEDTAVYDCAAGQPNLVVGHYYWGQGTQVTVSS	low polyreactivity
QVQLVESGGGLVQAGGSLRLSCAASGRIFSNYAMGWYRQAPGKERELVAAISYSGDSTYYADSVKGRFTISRDNAKNTVYLQMNSLKPEDTAVYYCAAVRSYRRYPQSSDLYYYWGQGTQVTVSS	high polyreactivity
